{"source": "paper PMC2192215", "about": "(The Journal of Experimental Medicine, 1995)", "key": {"[1]": {"tested_on": "Seu.5 T cells", "assay": "T cell hybridoma assay: IL-2 production by Seu.5 T cells", "format": "cell-based, A/J mice", "conditions": "APC pulsed with the peptide, tissue culture assay; data not shown"}, "[2]": {"target": "T1, I-Au molecule (Mus musculus, UniProt P06344+P14438)", "T1 sequence (P06344 whole entry, looked up)": "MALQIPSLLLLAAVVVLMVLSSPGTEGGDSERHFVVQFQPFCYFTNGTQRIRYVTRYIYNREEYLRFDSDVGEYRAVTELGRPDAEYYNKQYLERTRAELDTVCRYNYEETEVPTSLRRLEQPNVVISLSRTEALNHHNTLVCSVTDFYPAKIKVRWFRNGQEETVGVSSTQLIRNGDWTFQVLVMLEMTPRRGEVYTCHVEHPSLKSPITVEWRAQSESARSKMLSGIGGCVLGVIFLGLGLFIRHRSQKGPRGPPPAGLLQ", "T1 sequence (P14438 whole entry, looked up)": "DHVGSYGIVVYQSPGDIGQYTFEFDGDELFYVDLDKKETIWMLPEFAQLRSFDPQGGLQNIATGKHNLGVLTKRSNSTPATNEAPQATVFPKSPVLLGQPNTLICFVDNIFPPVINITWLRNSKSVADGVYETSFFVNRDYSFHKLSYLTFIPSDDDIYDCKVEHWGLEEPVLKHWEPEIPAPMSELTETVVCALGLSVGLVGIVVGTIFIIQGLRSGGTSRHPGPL", "conditions": "cited from earlier work"}, "[3]": {"conditions": "cited from earlier work"}, "[4]": {"tested_on": "A/J mice", "assay": "Induction and quantitation of autoimmune myocarditis in A/J mice", "format": "in vivo", "conditions": "experiment 1; 100 μg myosin or 100 nmol peptide; H&E cross-sections, day 21"}, "[5]": {"target": "purified I-Ak molecules (mouse)", "assay": "radioligand binding"}, "[6]": {"target": "I-Ak molecules on the surface of I-Ak-expressing M12.C3.F6 B-lymphoma cells (mouse)", "assay": "SDS/PAGE stability assay"}}, "note": "“Also recorded” adds a separate entry of the source. Ends that are not written are not given here."}
{"molecule": "SAFDVLSFTAEEKA [myhc0~(335-348)]", "values": [{"measurement": "stimulation of Seu.5 T cells by peptide-pulsed APC", "setting": "[1]", "result": "strongly stimulated"}]}
{"molecule": "MBP(Ac1-11): myelin basic protein epitope (Ac-MGNHSGKRELS; UniProt P04370 1-11, looked up, fragment)", "values": [{"measurement": "binding to I-Au", "setting": "[2]", "result": "bound very weakly"}, {"measurement": "induction of experimental autoimmune encephalomyelitis", "setting": "[3]", "result": "could strongly induce experimental autoimmune"}]}
{"molecule": "DSAFDVLSFTAEEKAGVYK [myhca(334-352)]", "values": [{"measurement": "severity of myocarditis in photomicrographs (Fig. 4 B)", "setting": "[4]", "result": "Moderate; also recorded: Severe"}]}
{"molecule": "YEDYGILQINSR (also: 125I-labeled, residue not given here)", "note": "[125I-labeled HEL(YE52-61)]", "values": [{"measurement": "maximum binding in the absence of competitors", "setting": "[5]", "result": 148000, "unit": "cpm"}]}
{"molecule": "DGSTDYGILQINSR (also: 125I-labeled, residue not given here)", "note": "[125I-labeled HEL(48-61)]", "values": [{"measurement": "percent SDS-stable I-Ak", "setting": "[6]", "result": 96, "unit": "%"}]}
{"molecule": "DSAFDVLSFTAEEKAGVYK", "note": "[myhc alpha(334-352) peptide, unlabeled]", "values": [{"measurement": "relative IC50 (relative to unlabeled HEL(YE52-61))", "setting": "[5]", "result": 15.6}]}
{"molecule": "YEDYGILQINSR", "note": "[HEL(YE52-61), unlabeled]", "values": [{"measurement": "relative IC50 (relative to unlabeled HEL(YE52-61))", "setting": "[5]", "result": 1}]}
{"molecule": "DSAFDVLSFTAEEKAGVYK (not fully specified; also: radiolabel on Tyr, isotope not given here)", "note": "[myhc alpha(334-352) peptide, radiolabeled]", "values": [{"measurement": "percent SDS-stable I-Ak", "setting": "[6]", "result": 50, "unit": "%"}]}
{"molecule": "VNTFVHESLADVQA", "note": "[bovine RNase(43-56)]", "values": [{"measurement": "relative IC50 (relative to unlabeled HEL(YE52-61))", "setting": "[5]", "result": 33.3}]}
